Target: human CLDN18.1 (human) (UniProt P56856)
Experiment: FACS, U2OS-CLDN18.1 cells, antibody at 200 nM

MFI: 6040
B1: IgG1 isotype control antibody (antibody, V domains shown)
VH: EVQLEQSGAELMKPGASVKISCKATGYTFTTYWIEWIKQRPGHSLEWIGEILPGSDSTYYNEKVKGKVTFTADASSNTAYMQLSSLTSEDSAVYYCARGDGFYVYWGQGTTLTVSS
VL: DIELTQSPATLSVTPGDSVSLSCRASQSISNNLHWYQQKSHESPRLLIKYTSQSMSGIPSRFSGSGSGTDFTLSINSVETEDFGVYFCQQSGSWPRTFGGGTKLDIKR

Source: patent publication US20240409629A1
